B1: AM14 (trimeric prefusion specific antibody of the AM14 ELISA) (antibody, V domains shown)
VH: EVQLVESGGGVVQPGRSLRLSCAASGFSFSHYAMHWVRQAPGKGLEWVAVISYDGENTYYADSVKGRFSISRDNSKNTVSLQMNSLRPEDTALYYCARDRIVDDYYYYGMDVWGQGATVTVSS
VL: DIQMTQSPSSLSASVGDRVTITCQASQDIKKYLNWYHQKPGKVPELLMHDASNLETGVPSRFSGRGSGTDFTLTISSLQPEDIGTYYCQQYDNLPPLTFGGGTKVEIKR
notes: Antibody as used in the AM14 ELISA, detected with an HRP-labeled secondary antibody

Assays:
[1] = target: RSV A + RSV B bivalent composition (RSV subtype A; RSV subtype B); assay: AM14 Fab titration by SEC; High-Slow 1 cycle; 1 M 40°C
[2] = target: RSV A + RSV B bivalent composition (RSV subtype A; RSV subtype B); assay: AM14 Fab titration by SEC; composition of Table 17; Pre-lyo Prep 1, T0 (second value)
[3] = target: RSV A + RSV B bivalent composition (RSV subtype A; RSV subtype B); assay: AM14 Fab titration by SEC; High-Slow 2 cycle; 1 M 2-8°C
[4] = target: RSV A + RSV B bivalent composition (RSV subtype A; RSV subtype B); assay: AM14 Fab titration by SEC; High-Slow 1 cycle; 1 M 25°C (second value)
[5] = target: RSV A + RSV B bivalent composition (RSV subtype A; RSV subtype B); assay: AM14 Fab titration by SEC; High-Slow 1 cycle; 1 M 2-8°C (second value)
[6] = target: RSV A + RSV B bivalent composition (RSV subtype A; RSV subtype B); assay: AM14 Fab titration by SEC; High-Slow 1 cycle; 8 M 40°C
[7] = target: T1, RSV F protein of subtype A comprising a polypeptide of SEQ ID NO: 1 and a polypeptide of SEQ ID NO: 2 (RSV subtype A, UniProt P11209 137-513; P03420 26-109); assay: AM14 ELISA; F5 (pH 6, 100 mM NaCl, 9.0% sucrose); 1 wk 5°C
T1 construct: Stabilized prefusion F trimer made of three F2-F1 heterodimers; Produced recombinantly in CHO cells; also called RSV A; RSVA
T1 chain 1: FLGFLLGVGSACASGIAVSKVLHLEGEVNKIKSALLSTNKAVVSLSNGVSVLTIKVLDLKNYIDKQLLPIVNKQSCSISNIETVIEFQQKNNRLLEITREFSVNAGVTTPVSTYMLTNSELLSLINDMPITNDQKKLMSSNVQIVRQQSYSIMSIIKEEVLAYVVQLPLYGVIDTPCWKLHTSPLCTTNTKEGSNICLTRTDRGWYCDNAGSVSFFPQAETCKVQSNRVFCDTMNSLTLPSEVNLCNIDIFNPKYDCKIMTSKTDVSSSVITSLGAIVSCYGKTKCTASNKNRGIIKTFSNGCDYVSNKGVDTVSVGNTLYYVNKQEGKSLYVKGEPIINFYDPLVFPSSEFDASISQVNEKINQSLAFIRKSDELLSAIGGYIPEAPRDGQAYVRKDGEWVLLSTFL
T1 chain 2: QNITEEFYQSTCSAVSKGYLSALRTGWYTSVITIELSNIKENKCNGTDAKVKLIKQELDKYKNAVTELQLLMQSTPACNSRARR

[8] = target: T1, RSV F protein of subtype A comprising a …; assay: AM14 ELISA; F14 (pH 7, 50 mM NaCl, 4.5% sucrose); 2 wk 25°C
[9] = target: T1, RSV F protein of subtype A comprising a …; assay: AM14 ELISA; F1 (pH 8, 100 mM NaCl, 0% sucrose); 2 wk 25°C
[10] = target: T1, RSV F protein of subtype A comprising a …; assay: AM14 ELISA; F18 (pH 7, 50 mM NaCl, 3% sucrose + 3% mannitol); 2 wk 25°C
[11] = target: T1, RSV F protein of subtype A comprising a …; assay: AM14 ELISA; F18 (pH 7, 50 mM NaCl, 3% sucrose + 3% mannitol); T0
[12] = target: T1, RSV F protein of subtype A comprising a …; assay: AM14 ELISA; F17 (pH 7, 50 mM NaCl, 4.5% trehalose); 2 wk 25°C
[13] = target: T1, RSV F protein of subtype A comprising a …; assay: AM14 ELISA; F11 (pH 7, 50 mM NaCl, 9.0% sucrose); T0
[14] = target: T1, RSV F protein of subtype A comprising a …; assay: AM14 ELISA; F3 (pH 8, 0 mM NaCl, 9% sucrose); 1 wk 5°C
[15] = target: T1, RSV F protein of subtype A comprising a …; assay: AM14 ELISA; F7 (pH 6, 100 mM NaCl, 0% sucrose); 2 wk 25°C
[16] = target: T1, RSV F protein of subtype A comprising a …; assay: AM14 ELISA; F16 (pH 6, 0 mM NaCl, 0% sucrose); 2 wk 25°C
[17] = target: T1, RSV F protein of subtype A comprising a …; assay: AM14 ELISA; F16 (pH 6, 0 mM NaCl, 0% sucrose); 1 wk 25°C

Row | Molecule | Prefusion Content (%) [1] [%] | Prefusion Content (%) [2] [%] | Prefusion Content (%) [3] [%] | Prefusion Content (%) [4] [%] | Prefusion Content (%) [5] [%] | Prefusion Content (%) [6] [%] | AM14 prefusion content (%), relative to standard [7] [%] | AM14 prefusion content (%), relative to standard [8] [%] | AM14 prefusion content (%), relative to standard [9] [%] | AM14 prefusion content (%), relative to standard [10] [%] | AM14 prefusion content (%), relative to standard [11] [%] | AM14 prefusion content (%), relative to standard [12] [%] | AM14 prefusion content (%), relative to standard [13] [%] | AM14 prefusion content (%), relative to standard [14] [%] | AM14 prefusion content (%), relative to standard [15] [%] | AM14 prefusion content (%), relative to standard [16] [%] | AM14 prefusion content (%), relative to standard [17] [%]
1 | AM14 Fab | 51 | 84 | 68 | 65 | 44 | 53 |  |  |  |  |  |  |  |  |  |  | 
2 | B1 |  |  |  |  |  |  | 78 | 78 | 93 | 78 | 91 | 64 | 102 | 104 | 55 | 76 | 87

From patent publication US20260097113A1 (Pfizer, published 2026)
